Measured values as given in patent US20040214235A1 (KIRIN BEER, published 2004).

Key:
[1] = target: T1, TRAIL-R1-hFc, fusion protein of the extracellular region of human TRAIL-R1 and the Fc region of human IgG1 (human, UniProt O00220 24-239); experiment: ELISA, TRAIL-R1-hFc coated plate, hybridoma culture supernatant
T1 construct: extracellular domain; Bought (ALEXIS); not shown: Fc region of human IgG1
T1 sequence (looked up): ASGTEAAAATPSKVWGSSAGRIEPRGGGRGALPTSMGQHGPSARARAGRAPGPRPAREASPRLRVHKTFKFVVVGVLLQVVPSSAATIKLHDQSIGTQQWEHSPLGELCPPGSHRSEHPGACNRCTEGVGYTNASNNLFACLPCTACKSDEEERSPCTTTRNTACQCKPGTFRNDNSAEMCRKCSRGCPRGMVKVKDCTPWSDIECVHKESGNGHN

[2] = target: T1, TRAIL-R1-hFc, fusion protein of the …; experiment: ELISA, TRAIL-R1-hFc coated plate, purified antibody
[3] = target: T2, human TRAIL-R2 on the surface of cells (Colo205, U251, Jurkat, normal human hepatocytes) (human, UniProt O14763 56-440); experiment: cell-based or functional assay
[4] = target: T3, TRAIL-R2-hFc, fusion protein of the extracellular region of human TRAIL-R2 and the Fc region of human IgG1 (human, UniProt O14763 56-210); experiment: SPR (BIACORE 2000), TRAIL-R2-hFc immobilised on CM5, bivalent model
T3 construct: extracellular domain; Bought (ALEXIS) or made with TRAIL-R2 amino acids 1 to 183 as the extracellular region; not shown: Fc region of human IgG1
Experimental: TRAIL-R1-hFc or TRAIL-R2-hFc was diluted at a final concentration of 10 μg/ml with 10 mM Acetic Acid (pH 4.0), and then immobilized on a sensor chip CM5 by the amine coupling method. The immobilization conditions are as follows. NHS activation and ethanolamine blocking were performed according to the methods described in the instructions. Coupling of TRAIL-R1-hFc and that of TRAIL-R2-hFc were performed by manual injection as described in the instructions.
Each antibody of the dilution series was added in order at a flow rate of 20 μl/minute by the KINJECT method (binding for 2 minutes and dissociation for 6 minutes), thereby obtaining a sensorgram. […] Each antibody of the dilution series was added in order at a flow rate of 20 μl/minute by the KINJECT method (binding for 2 minutes and dissociation for 2 minutes), thereby obtaining sensorgrams. For each antibody, kinetics analysis was performed using each sensorgram and BIAevaluation software ver3.2 (Biacore). As a fitting model, global fitting was performed using a Bivalent model, so that the binding rate constant and the dissociation rate constant were found. In addition, a dissociation constant (Kd value) was calculated from the two constants. Also, the sensorgrams were used for fitting after the subtraction of control cells and buffer correction. In the tables, “kass” indicates the binding rate constant, “kdiss” indicates the dissociation rate constant, and “KD” indicates the dissociation constant.

[5] = target: T2, human TRAIL-R2 on the surface of cells …; experiment: cell-based or functional assay; remark: listed apart in the source
[6] = target: T3, TRAIL-R2-hFc, fusion protein of the …; experiment: ELISA on a plate coated with TRAIL-R2-hFc, detection with HRP-labeled goat anti-human Ig kappa, absorbance at 450 nm (method of Example 18)
Experimental: 50 μl of the thus prepared solution was added to each well of a 96-well microplate for ELISA (Maxisorp, Nunc) and incubated for 1 hour at room temperature or at 4° C. overnight, thereby coating TRAIL-R1-hFc or TRAIL-R2-hFc to the microplate. […] Thus, a microplate having each well coated with TRAIL-R1-hFc or TRAIL-R2-hFc was prepared.
The culture supernatant of each hybridoma (50 μl) was added to each well, reaction was performed at room temperature for 1 hour, and then each well was washed three times in 0.1% Tween20-containing PBS (PBS-T). Subsequently, horseradish peroxidase-labeled goat anti-human Igκ antibodies (50 μl/well, Biosource International) were diluted 2000 times in PBS-T containing 10% Block Ace (Dainippon Pharmaceutical Co., Ltd.). 50 μl of the thus prepared solution was added to each well, and incubation was then performed at room temperature for 30 minutes; The microplate was washed three times with PBS-T, and then 50 μl of a TMB chromogenic substrate solution (DAKO) was added to each well, followed by incubation at room temperature for 20 minutes. 0.5M sulfuric acid was added (50 μl/well) to each well to stop reaction.
For the measurement of the binding activity, 96-well microplate for ELISA (Maxisorp, Nunc) to which TRAIL-R2-hFc was coated was used.

B1: human anti-TRAIL-R2 monoclonal antibody H-48-2 (antibody, IgG1, V domains shown)
VH: QLQLQESGPGLVKPSETLSLTCTVSGGSISSSSYYWGWVRQPPGKGLEWIGSIHYSGSTFYNPSLKSRVTISVDTSKNQFSLKLSSVTAADTTVYYCARQGSTVVRGVYYYGMDVWGQGTTVTVSS
VL: not shown
notes: IgG1, human kappa light chain; Hybridoma FERM BP-7599; also called H-48-2-IgG1
Q: Does B1 bind [1]?
A: Result: no binding

B2: human anti-TRAIL-R2 monoclonal antibody KMTR1 (antibody, IgG1, V domains shown)
VH: EVQLLESGGGLVQPGRSLRLSCAASGFTFSSYAMSWVRQAPGKGLEWVSAISGSGGSRYYADSVKGRFTISRDNSKNTLYLQMNSLRAEDTAVYYCAKESSGWFGAFDYWGQGTLVTVSS
VL: EIVLTQSPDFQSVTPKEKVTITCRASQSIGSSLHWYQQKPDQSPKLLIKYASQSFSGVPSRFSGSGSGTDFTLTINSLEAEDAAAYYCHQSSSLPITFGQGTRLEIK
notes: IgG1, human kappa light chain
Q: Does B2 bind [2]?
A: Result: binds

Q: What about the “LD50, Colo205 cells, 48 h, with goat anti-human IgG cross-linker” value (from here on “LD50, Colo205 cells, 48 h”) [3] of the same binder?
A: Its value is 0.04 µg/mL.

Q: What about the “LD50, normal human hepatocytes, 24 h, with goat anti-human IgG cross-linker” value (“LD50, normal human hepatocytes, 24 h” below) [3] of the same binder?
A: Its value is greater than 10 µg/mL.

B3: human anti-TRAIL-R2 monoclonal antibody E-11-13 (antibody, IgG1, V domains shown)
VH: QLQLQESGPGLVKPSETLSLTCTVSGGSIISKSSYWGWIRQPPGKGLEWIGSIYYSGSTFYNPSLKSRVTISVDTSKNQFSLKLSSVTAADTAVYYCARLTVAEFDYWGQGTLVTVSS
VL: EIVLTQSPATLSLSPGERATLSCRASQSVSSFLAWYQQKPGQAPRLLIYDASNRATGIPARFSGSGSGTDFTLTISSLEPEDFAVYYCQQRSNWPLTFGPGTKVDIK
notes: Hybridoma FERM BP-7698 / BP-7770; also called E-11-3
Q: Which Kd [4] does the source give for B3 here?
A: The Kd was 0.0729 nM.

Q: And the koff [4]?
A: Its koff is 3.84e-05 s⁻¹.

Q: What about the kon [4] of the same binder?
A: The kon was 527000 M⁻¹ s⁻¹.

Q: What about the “LD50, Jurkat cells, 48 h” value [5] of the same binder?
A: Its value is 0.1 µg/mL.

Q: What about the “LD50, U251 cells, 48 h” value [5] of the same binder?
A: Its value is 0.3 µg/mL.

Q: And the “LD50, Colo205 cells, 48 h” value [3]?
A: The value was 0.11 µg/mL.

Q: And the “LD50, normal human hepatocytes, 24 h” value [3]?
A: The value was 2.8 µg/mL.

B4: recombinant 0304 antibody of which subclass is IgG4 (antibody, V domains shown)
VH: QVQLVQSGAEMKKPGASVKVSCKTSGYTFTNYKINWVRQAPGQGLEWMGWMNPDTDSTGYPQKFQGRVTMTRNTSISTAYMELSSLRSEDTAVYYCARSYGSGSYYRDYYYGMDVWGQGTTVTVSS
VL: EIVLTQSPATLSLSPGERATLSCRASQSVSSYLAWYQQKPGQAPRLLIYDASNRATGIPARFSGSGSGTDFTLTISSLEPEDFAVYYCQQRSNWPLTFGGGTKVEIK
Q: Which “EC50 (read off the curve)” value [6] does the source give for B4 here?
A: The value was roughly 0.03 µg/mL.

B5: human anti-TRAIL-R2 monoclonal antibody L-30-10 (antibody, IgG1, V domains shown)
VH: QLQLQESGPGLVKPSETLSLTCTVSGGSISSRSNYWGWIRQPPGKGLEWIGNVYYRGSTYYNSSLKSRVTISVDTSKNQFSLKLSSVTVADTAVYYCARLSVAEFDYWGQGILVTVSS
VL: EIVLTQSPATLSLSPGERATLSCRASQSVSSFLAWYQQKPGQAPRLLIYDASNRATGSPARFSGSGSGTDFTLTISSLEPEDFAVYYCQQRSDWPLTFGPGTKVDIK
notes: Hybridoma FERM BP-7700 / BP-7769
Q: With B5 as the binder, how does the Kd [4] read?
A: The Kd was 2.35 nM.

Q: And the koff [4]?
A: Its koff is 0.00144 s⁻¹.

Q: And the kon [4]?
A: Its kon is 613000 M⁻¹ s⁻¹.

Q: And the “LD50, Jurkat cells, 48 h” value [5]?
A: Its value is 0.13 µg/mL.

Q: What about the “LD50, U251 cells, 48 h” value [5] of the same binder?
A: The value was 0.17 µg/mL.

Q: And the “LD50, Colo205 cells, 48 h” value [3]?
A: Its value is 0.1 µg/mL.

Q: What about the “LD50, normal human hepatocytes, 24 h” value [3] of the same binder?
A: The value was 24 µg/mL.

B6: recombinant 0304 antibody of which subclass is IgG1 (antibody, V domains shown)
VH: QVQLVQSGAEMKKPGASVKVSCKTSGYTFTNYKINWVRQAPGQGLEWMGWMNPDTDSTGYPQKFQGRVTMTRNTSISTAYMELSSLRSEDTAVYYCARSYGSGSYYRDYYYGMDVWGQGTTVTVSS
VL: EIVLTQSPATLSLSPGERATLSCRASQSVSSYLAWYQQKPGQAPRLLIYDASNRATGIPARFSGSGSGTDFTLTISSLEPEDFAVYYCQQRSNWPLTFGGGTKVEIK
Q: How did the “EC50 (read off the curve)” value [6] turn out when B6 was run?
A: Its value is roughly 0.03 µg/mL.

B7: human anti-TRAIL-R2 monoclonal antibody 0304 (from the hybridoma) (antibody, IgG4, V domains shown)
VH: QVQLVQSGAEMKKPGASVKVSCKTSGYTFTNYKINWVRQAPGQGLEWMGWMNPDTDSTGYPQKFQGRVTMTRNTSISTAYMELSSLRSEDTAVYYCARSYGSGSYYRDYYYGMDVWGQGTTVTVSS
VL: EIVLTQSPATLSLSPGERATLSCRASQSVSSYLAWYQQKPGQAPRLLIYDASNRATGIPARFSGSGSGTDFTLTISSLEPEDFAVYYCQQRSNWPLTFGGGTKVEIK
notes: IgG4, human kappa light chain
Q: What does the source list for B7?
A: binding result [2]: no binding; LD50, Colo205 cells, 48 h, with goat anti-human IgG cross-linker [3]: 0.02 µg/mL; LD50, normal human hepatocytes, 24 h, with goat anti-human IgG cross-linker [3]: 0.002 µg/mL
